# Test results: patent publication US20230364254A1, “METHODS FOR TREATING CANCERS WITH ANTIBODY DRUG CONJUGATES (ADC) THAT BIND TO 191P4D12 PROTEINS” (priority 2020, published 2023)
# Test system: patients with locally advanced or metastatic urothelial cancer
# Assay: Same phase 2 study: safety (adverse events, NCI CTCAE v4.03)
# Assay type: in vivo, human
# Text: Safety assessments will be based on the information collected through the safety surveillance process and will include the data from recorded adverse events (AEs) including SAEs, recording of concomitant medication, physical examination findings, cardiac monitoring, and laboratory tests.
# The assessment of safety during the course of this study will consist of the surveillance and recording of AEs including SAEs, recording of concomitant medication, and measurements of protocol-specified physical examination findings, cardiac monitoring, and laboratory tests.
# AE severity should be graded using the National Cancer Institute's Common Terminology Criteria for Adverse Events (NCI CTCAE), Version 4.03. These criteria are provided in the study manual.
# An overview of AEs will provide a tabulation of the incidence of all AEs, treatment-emergent AEs, treatment-related AEs, Grade 3 and higher AEs. SAEs, treatment-related SAEs, deaths, and AEs leading to study treatment discontinuation. Adverse events will be defined as treatment emergent if they are newly occurring or worsened following study treatment.
# AEs will be classified by system organ class and preferred tem using the Medical Dictionary for Regulatory Activities (MedDRA) and graded using NCI CTCAE, Version 4.03.
# The incidence of AEs will be summarized by system organ class, preferred term, severity and relationship to study drug. In the event of multiple occurrences of the same AE in one patient, the AE will be counted once as the occurrence for the maximum grade. AEs leading to premature discontinuation of study drug will be summarized and listed in the same manner.
# [1] = Cohort 1 (N = 125), count (percent)
substance,measurement,setting,value
enfortumab vedotin: Nectin-4 directed ADC: fully human anti-nectin-4 IgG1 kappa antibody (AGS-22C3) conjugated to MMAE via protease-cleavable maleimidocaproyl valine-citrulline linker,"AE of special interest, All Grade: Hyperglycemia",Cohort 1 (N = 125),20 (16) N (%)
same,"AE of special interest, All Grade: IRR",Cohort 1 (N = 125),8 (6.4) N (%)
same,"AE of special interest, All Grade: Ocular Events, Blurred Vision",Cohort 1 (N = 125),21 (16.8) N (%)
same,"AE of special interest, All Grade: Ocular Events, Corneal Disorders",Cohort 1 (N = 125),18 (14.4) N (%)
same,"AE of special interest, All Grade: Ocular Events, Dry Eye Disorders",Cohort 1 (N = 125),51 (40.8) N (%)
same,"AE of special interest, All Grade: Peripheral Neuropathy",Cohort 1 (N = 125),70 (56) N (%)
same,"AE of special interest, All Grade: Rash",Cohort 1 (N = 125),67 (53.6) N (%)
same,"AE of special interest, ≥Gr 3: Hyperglycemia",Cohort 1 (N = 125),10 (8) N (%)
same,"AE of special interest, ≥Gr 3: IRR",Cohort 1 (N = 125),1 (0.8) N (%)
same,"AE of special interest, ≥Gr 3: Peripheral Neuropathy",Cohort 1 (N = 125),5 (4) N (%)
same,"AE of special interest, ≥Gr 3: Rash",Cohort 1 (N = 125),15 (12.0) N (%)
same,Any TEAEs,Cohort 1 (N = 125),125 (100.0) n (%)
same,Any TEAEs leading to death,Cohort 1 (N = 125),7 (5.6) n (%)
same,Any TEAEs leading to treatment discontinuation,Cohort 1 (N = 125),21 (16.8) n (%)
same,Any grade 3-5 TEAEs,Cohort 1 (N = 125),92 (73.6) n (%)
same,Any serious TEAEs,Cohort 1 (N = 125),58 (46.4) n (%)
same,SAEs (All): Acute kidney injury,Cohort 1 (N = 125),4 (3.2) n (%)
same,SAEs (All): Cellulitis,Cohort 1 (N = 125),6 (4.8) n (%)
same,SAEs (All): Diarrhoea,Cohort 1 (N = 125),3 (2.4) n (%)
same,SAEs (All): Febrile neutropenia,Cohort 1 (N = 125),5 (4.0) n (%)
same,SAEs (All): Nausea,Cohort 1 (N = 125),3 (2.4) n (%)
same,SAEs (All): Overall,Cohort 1 (N = 125),59 (47.2) n (%)
same,SAEs (All): Pneumonia,Cohort 1 (N = 125),3 (2.4) n (%)
same,SAEs (All): Sepsis,Cohort 1 (N = 125),4 (3.2) n (%)
same,SAEs (All): Urinary tract infection,Cohort 1 (N = 125),6 (4.8) n (%)
same,SAEs (Related): Acute kidney injury,Cohort 1 (N = 125),1 (0.8) n (%)
same,SAEs (Related): Cellulitis,Cohort 1 (N = 125),2 (1.6) n (%)
same,SAEs (Related): Diarrhoea,Cohort 1 (N = 125),1 (0.8) n (%)
same,SAEs (Related): Febrile neutropenia,Cohort 1 (N = 125),5 (4.0) n (%)
same,SAEs (Related): Nausea,Cohort 1 (N = 125),3 (2.4) n (%)
same,SAEs (Related): Overall,Cohort 1 (N = 125),24 (19.2) n (%)
same,Treatment-related AE leading to discontinuation: Asthenia,Cohort 1 (N = 125),1 (0.8) n (%)
same,Treatment-related AE leading to discontinuation: Drug eruption,Cohort 1 (N = 125),1 (0.8) n (%)
same,Treatment-related AE leading to discontinuation: Enterocolitis,Cohort 1 (N = 125),1 (0.8) n (%)
same,Treatment-related AE leading to discontinuation: Fatigue,Cohort 1 (N = 125),1 (0.8) n (%)
same,Treatment-related AE leading to discontinuation: Hyperglycaemia,Cohort 1 (N = 125),1 (0.8) n (%)
same,Treatment-related AE leading to discontinuation: Interstitial lung disease,Cohort 1 (N = 125),1 (0.8) n (%)
same,Treatment-related AE leading to discontinuation: Overall,Cohort 1 (N = 125),15 (12.0) n (%)
same,Treatment-related AE leading to discontinuation: Peripheral sensory neuropathy,Cohort 1 (N = 125),8 (6.4) n (%)
same,Treatment-related AE leading to discontinuation: Stevens-Johnson syndrome,Cohort 1 (N = 125),1 (0.8) n (%)
same,Treatment-related TEAEs,Cohort 1 (N = 125),117 (93.6) n (%)
same,Treatment-related TEAEs (all grades): Alopecia,Cohort 1 (N = 125),62 (49.6) n (%)
same,Treatment-related TEAEs (all grades): Anaemia,Cohort 1 (N = 125),27 (21.6) n (%)
same,Treatment-related TEAEs (all grades): Aspartate aminotransferase increased,Cohort 1 (N = 125),17 (13.6) n (%)
same,Treatment-related TEAEs (all grades): Decreased appetite,Cohort 1 (N = 125),55 (44.0) n (%)
same,Treatment-related TEAEs (all grades): Diarrhoea,Cohort 1 (N = 125),41 (32.8) n (%)
same,Treatment-related TEAEs (all grades): Dry eye,Cohort 1 (N = 125),25 (20.0) n (%)
same,Treatment-related TEAEs (all grades): Dry skin,Cohort 1 (N = 125),30 (24.0) n (%)
same,Treatment-related TEAEs (all grades): Dysgeusia,Cohort 1 (N = 125),47 (37.6) n (%)
same,Treatment-related TEAEs (all grades): Fatigue,Cohort 1 (N = 125),62 (49.6) n (%)
same,Treatment-related TEAEs (all grades): Lacrimation increased,Cohort 1 (N = 125),21 (16.8) n (%)
same,Treatment-related TEAEs (all grades): Nausea,Cohort 1 (N = 125),50 (40.0) n (%)
same,Treatment-related TEAEs (all grades): Neutropenia,Cohort 1 (N = 125),13 (10.4) n (%)
same,Treatment-related TEAEs (all grades): Oedema peripheral,Cohort 1 (N = 125),15 (12.0) n (%)
same,Treatment-related TEAEs (all grades): Overall,Cohort 1 (N = 125),117 (93.6) n (%)
same,Treatment-related TEAEs (all grades): Peripheral sensory neuropathy,Cohort 1 (N = 125),50 (40.0) n (%)
same,Treatment-related TEAEs (all grades): Pruritus,Cohort 1 (N = 125),32 (25.6) n (%)
same,Treatment-related TEAEs (all grades): Rash maculo-papular,Cohort 1 (N = 125),28 (22.4) n (%)
same,Treatment-related TEAEs (all grades): Vomiting,Cohort 1 (N = 125),19 (15.2) n (%)
same,Treatment-related TEAEs (all grades): Weight decreased,Cohort 1 (N = 125),29 (23.2) n (%)
same,Treatment-related TEAEs leading to death,Cohort 1 (N = 125),0 n (%)
same,Treatment-related TEAEs leading to treatment discontinuation,Cohort 1 (N = 125),15 (12.0) n (%)
same,Treatment-related TEAEs ≥Grade 3: Acute kidney injury,Cohort 1 (N = 125),1 (0.8) n (%)
same,Treatment-related TEAEs ≥Grade 3: Amylase increased,Cohort 1 (N = 125),3 (2.4) n (%)
same,Treatment-related TEAEs ≥Grade 3: Anaemia,Cohort 1 (N = 125),9 (7.2) n (%)
same,Treatment-related TEAEs ≥Grade 3: Aspartate aminotransferase increased,Cohort 1 (N = 125),4 (3.2) n (%)
same,Treatment-related TEAEs ≥Grade 3: Decreased appetite,Cohort 1 (N = 125),1 (0.8) n (%)
same,Treatment-related TEAEs ≥Grade 3: Diarrhoea,Cohort 1 (N = 125),3 (2.4) n (%)
same,Treatment-related TEAEs ≥Grade 3: Fatigue,Cohort 1 (N = 125),8 (6.4) n (%)
same,Treatment-related TEAEs ≥Grade 3: Febrile neutropenia,Cohort 1 (N = 125),5 (4.0) n (%)
same,Treatment-related TEAEs ≥Grade 3: Hyperglycaemia,Cohort 1 (N = 125),5 (4.0) n (%)
same,Treatment-related TEAEs ≥Grade 3: Hyponatraemia,Cohort 1 (N = 125),3 (2.4) n (%)
same,Treatment-related TEAEs ≥Grade 3: Lipase increased,Cohort 1 (N = 125),5 (4.0) n (%)
same,Treatment-related TEAEs ≥Grade 3: Neutropenia,Cohort 1 (N = 125),10 (8.0) n (%)
same,Treatment-related TEAEs ≥Grade 3: Neutrophil count decreased,Cohort 1 (N = 125),3 (2.4) n (%)
same,Treatment-related TEAEs ≥Grade 3: Overall,Cohort 1 (N = 125),70 (56.0) n (%)
same,Treatment-related TEAEs ≥Grade 3: Peripheral sensory neuropathy,Cohort 1 (N = 125),2 (1.6) n (%)
same,Treatment-related TEAEs ≥Grade 3: Pruritus,Cohort 1 (N = 125),2 (1.6) n (%)
same,Treatment-related TEAEs ≥Grade 3: Rash erythematous,Cohort 1 (N = 125),4 (3.2) n (%)
same,Treatment-related TEAEs ≥Grade 3: Rash maculo-papular,Cohort 1 (N = 125),5 (4.0) n (%)
same,Treatment-related grade 3-5 TEAEs,Cohort 1 (N = 125),70 (56.9) n (%)
same,Treatment-related serious TEAEs,Cohort 1 (N = 125),24 (19.2) n (%)
same,TEAEs leading to death (excluding disease progression): Acute respiratory failure,[1],1 (0.8)
same,TEAEs leading to death (excluding disease progression): Cardiac disorder,[1],1 (0.8)
same,TEAEs leading to death (excluding disease progression): Overall,[1],4 (3.2)
same,TEAEs leading to death (excluding disease progression): Pneumonia aspiration,[1],1 (0.8)
same,TEAEs leading to death (excluding disease progression): Sepsis,[1],1 (0.8)
same,"AE of special interest, All Grade: Hyperglycemia",Cohort 2 (N = 89),16 (18) N (%)
same,"AE of special interest, All Grade: IRR",Cohort 2 (N = 89),6 (6.7) N (%)
